Target: the molecule itself
Test: native MS

B1: PAXX residues 1-145 (PAXX^1-145) (domain or fragment)
chain: MDPLSPPLCTLPPGPEPPRFVCYCEGEESGEGDRGGFNLYVTDAAELWSTCFTPDSLAALKARFGLSAAEDITPRFRAACEQQAVALTLQEDRASLTLSGGPSALAFDLSKVPGPEAAPRLRALTLGLAKRVWSLERRLAAAEET
- stoichiometry N: 2
